# Tested on: Escherichia coli TOP10
# Assay: shrunken log2 fold change of peptide-encoding DNA abundance (4.5 h post-induction vs induction); higher = less antimicrobial activity (less host growth inhibition)
# Conditions: time post-induction: 4.5 h; library: site-saturation at positions 5, 18, 19, 20
# 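Further: peptides expressed intracellularly from a pBAD plasmid library in pooled LB shake-flask culture, induced with 0.3% L-arabinose, DNA abundance read by NGS, three biological replicates, DESeq2 with apeglm shrinkage.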
row,Sequence,shrunken log2 fold change
1,RRIRARPPRLPRPRPRPEQPPRP,0.343
2,RRIRFRPPRLPRPRPRPNCNPRP,-0.469
3,RRIRARPPRLPRPRPRPVWNPRP,0.0865
4,RRIRHRPPRLPRPRPRPSTMPRP,-0.493
5,RRIRYRPPRLPRPRPRPCWCPRP,-0.0193
6,RRIRWRPPRLPRPRPRPCKKPRP,0.0155
7,RRIRCRPPRLPRPRPRPPYHPRP,-0.334
8,RRIRTRPPRLPRPRPRPQTIPRP,-0.717
9,RRIRFRPPRLPRPRPRPMFDPRP,-0.155
10,RRIRHRPPRLPRPRPRPASQPRP,0.045
11,RRIRNRPPRLPRPRPRPKWNPRP,-0.319
12,RRIRQRPPRLPRPRPRPMFFPRP,-0.0364
13,RRIRNRPPRLPRPRPRPTGRPRP,0.0525
14,RRIRVRPPRLPRPRPRPPQNPRP,0.188
15,RRIRDRPPRLPRPRPRPVYFPRP,-0.447
16,RRIRLRPPRLPRPRPRPCQRPRP,-0.00788
17,RRIRNRPPRLPRPRPRPWTSPRP,0.0238
18,RRIRSRPPRLPRPRPRPFTWPRP,-0.24
19,RRIRNRPPRLPRPRPRPTIHPRP,-0.46
20,RRIRMRPPRLPRPRPRPLLLPRP,-0.32
21,RRIRWRPPRLPRPRPRPSEDPRP,0.145
22,RRIRPRPPRLPRPRPRPDSGPRP,0.0463
23,RRIRNRPPRLPRPRPRPKYGPRP,-0.174
24,RRIRQRPPRLPRPRPRPFQSPRP,-0.0102
25,RRIRARPPRLPRPRPRPWWLPRP,-8.93e-05

row,Sequence,shrunken log2 fold change
1,RRIRHRPPRLPRPRPRPYDQPRP,-0.291
2,RRIRVRPPRLPRPRPRPTQCPRP,-0.0227
3,RRIRVRPPRLPRPRPRPTWFPRP,0.177
4,RRIRGRPPRLPRPRPRPADIPRP,-0.229
5,RRIRPRPPRLPRPRPRPQNNPRP,-0.812
6,RRIRGRPPRLPRPRPRPDPWPRP,0.53
7,RRIRCRPPRLPRPRPRPKSGPRP,0.017
8,RRIRNRPPRLPRPRPRPPFIPRP,-0.551
9,RRIRHRPPRLPRPRPRPEIKPRP,-0.264
10,RRIRERPPRLPRPRPRPPFMPRP,-0.185
11,RRIRRRPPRLPRPRPRPSPHPRP,0.334
12,RRIRHRPPRLPRPRPRPIYDPRP,-0.436
13,RRIRGRPPRLPRPRPRPCFPPRP,0.309
14,RRIRDRPPRLPRPRPRPKHAPRP,0.222
15,RRIRARPPRLPRPRPRPDMNPRP,0.31
16,RRIRARPPRLPRPRPRPLMVPRP,0.0926
17,RRIRIRPPRLPRPRPRPDGCPRP,-0.229
18,RRIRERPPRLPRPRPRPVYIPRP,-0.0234
19,RRIRMRPPRLPRPRPRPPCDPRP,0.506
20,RRIRFRPPRLPRPRPRPANRPRP,-0.0406
21,RRIRNRPPRLPRPRPRPPWIPRP,-0.0807
22,RRIRQRPPRLPRPRPRPQAYPRP,-0.0257
23,RRIRNRPPRLPRPRPRPQTFPRP,-0.0594
24,RRIRWRPPRLPRPRPRPYQFPRP,-0.00205
25,RRIRWRPPRLPRPRPRPLFCPRP,0.22

row,Sequence,shrunken log2 fold change
1,RRIRKRPPRLPRPRPRPPYKPRP,-0.142
2,RRIRHRPPRLPRPRPRPCAPPRP,0.0642
3,RRIRHRPPRLPRPRPRPEPQPRP,0.39
4,RRIRYRPPRLPRPRPRPNKLPRP,-0.987
5,RRIRARPPRLPRPRPRPHKYPRP,-0.243
6,RRIRSRPPRLPRPRPRPFRVPRP,0.166
7,RRIRMRPPRLPRPRPRPFGQPRP,0.0853
8,RRIRLRPPRLPRPRPRPLMNPRP,-0.253
9,RRIRMRPPRLPRPRPRPVKMPRP,-0.124
10,RRIRQRPPRLPRPRPRPWYAPRP,-0.134
11,RRIRYRPPRLPRPRPRPPMNPRP,-0.728
12,RRIRVRPPRLPRPRPRPYVDPRP,-0.0757
13,RRIRSRPPRLPRPRPRPTRPPRP,0.645
14,RRIRPRPPRLPRPRPRPIYMPRP,-0.306
15,RRIRHRPPRLPRPRPRPKCNPRP,-0.00178
16,RRIRWRPPRLPRPRPRPEIWPRP,1
17,RRIRHRPPRLPRPRPRPMPLPRP,-0.0217
18,RRIRWRPPRLPRPRPRPTSQPRP,0.229
19,RRIRYRPPRLPRPRPRPHVRPRP,-0.202
20,RRIRSRPPRLPRPRPRPNKSPRP,-0.266
21,RRIRWRPPRLPRPRPRPDVRPRP,-0.0136
22,RRIRCRPPRLPRPRPRPYHLPRP,-0.0832
23,RRIRLRPPRLPRPRPRPTYVPRP,-0.591
24,RRIRKRPPRLPRPRPRPDWNPRP,0.158
25,RRIRGRPPRLPRPRPRPQYNPRP,-0.0557

row,Sequence,shrunken log2 fold change
1,RRIRVRPPRLPRPRPRPHGCPRP,-0.041
2,RRIRHRPPRLPRPRPRPLQQPRP,0.0446
3,RRIRLRPPRLPRPRPRPWLNPRP,-0.183
4,RRIRNRPPRLPRPRPRPKEVPRP,0.0999
5,RRIRFRPPRLPRPRPRPDWMPRP,-0.0628
6,RRIRCRPPRLPRPRPRPMEPPRP,0.0774
7,RRIRSRPPRLPRPRPRPSSHPRP,-0.0982
8,RRIRIRPPRLPRPRPRPLEFPRP,-0.196
9,RRIRNRPPRLPRPRPRPNDYPRP,-0.365
10,RRIRHRPPRLPRPRPRPHCLPRP,-0.777
11,RRIRQRPPRLPRPRPRPASCPRP,0.182
12,RRIRIRPPRLPRPRPRPMTCPRP,-0.00783
13,RRIRSRPPRLPRPRPRPYCHPRP,-0.532
14,RRIRQRPPRLPRPRPRPNPMPRP,-0.00515
15,RRIRPRPPRLPRPRPRPHHYPRP,-0.37
16,RRIRVRPPRLPRPRPRPDEDPRP,0.185
17,RRIRHRPPRLPRPRPRPVVKPRP,-0.132
18,RRIRFRPPRLPRPRPRPHKPPRP,0.14
19,RRIRSRPPRLPRPRPRPHKRPRP,0.0245
20,RRIRLRPPRLPRPRPRPPWEPRP,0.192
21,RRIRHRPPRLPRPRPRPAETPRP,-0.074
22,RRIRSRPPRLPRPRPRPLRKPRP,0.383
23,RRIRQRPPRLPRPRPRPKCMPRP,-0.551
24,RRIRHRPPRLPRPRPRPISKPRP,-0.929
25,RRIRKRPPRLPRPRPRPDKAPRP,0.0987

row,Sequence,shrunken log2 fold change
1,RRIRARPPRLPRPRPRPHFYPRP,0.107
2,RRIRKRPPRLPRPRPRPTKHPRP,0.195
3,RRIRPRPPRLPRPRPRPVGNPRP,-0.0903
4,RRIRLRPPRLPRPRPRPWSIPRP,-0.0808
5,RRIRERPPRLPRPRPRPGVLPRP,-0.177
6,RRIRARPPRLPRPRPRPARYPRP,0.12
7,RRIRGRPPRLPRPRPRPRFWPRP,0.943
8,RRIRMRPPRLPRPRPRPHTKPRP,0.137
9,RRIRTRPPRLPRPRPRPWTWPRP,-0.0696
10,RRIRHRPPRLPRPRPRPQQHPRP,-0.384
11,RRIRMRPPRLPRPRPRPVTFPRP,-0.0159
12,RRIRPRPPRLPRPRPRPEYTPRP,-0.0863
13,RRIRLRPPRLPRPRPRPEEHPRP,0.00515
14,RRIRQRPPRLPRPRPRPEGRPRP,0.00666
15,RRIRSRPPRLPRPRPRPYLMPRP,-0.566
16,RRIRIRPPRLPRPRPRPQAAPRP,-0.115
17,RRIRVRPPRLPRPRPRPDRDPRP,0.0414
18,RRIRFRPPRLPRPRPRPLTGPRP,-0.196
19,RRIRVRPPRLPRPRPRPDADPRP,0.793
20,RRIRGRPPRLPRPRPRPLWCPRP,0.204
21,RRIRGRPPRLPRPRPRPSKQPRP,-0.0392
22,RRIRRRPPRLPRPRPRPPDQPRP,0.764
23,RRIRCRPPRLPRPRPRPIMKPRP,-0.649
24,RRIRHRPPRLPRPRPRPDCVPRP,-0.383
25,RRIRARPPRLPRPRPRPWKVPRP,-0.279

row,Sequence,shrunken log2 fold change
1,RRIRNRPPRLPRPRPRPISKPRP,-0.472
2,RRIRHRPPRLPRPRPRPKQVPRP,-0.482
3,RRIRNRPPRLPRPRPRPPIIPRP,-0.192
4,RRIRPRPPRLPRPRPRPTKTPRP,0.132
5,RRIRDRPPRLPRPRPRPDSYPRP,-0.0336
6,RRIRARPPRLPRPRPRPIEKPRP,0.15
7,RRIRFRPPRLPRPRPRPMRGPRP,0.664
8,RRIRPRPPRLPRPRPRPKGGPRP,1.33
9,RRIRVRPPRLPRPRPRPKWGPRP,0.155
10,RRIRRRPPRLPRPRPRPYWPPRP,-0.377
11,RRIRNRPPRLPRPRPRPARFPRP,0.0266
12,RRIRYRPPRLPRPRPRPLEDPRP,-0.00931
13,RRIRWRPPRLPRPRPRPIHIPRP,-0.694
14,RRIRLRPPRLPRPRPRPCWYPRP,-0.176
15,RRIRQRPPRLPRPRPRPPRRPRP,0.852
16,RRIRCRPPRLPRPRPRPNLRPRP,-0.315
17,RRIRKRPPRLPRPRPRPEANPRP,0.0281
18,RRIRGRPPRLPRPRPRPHKQPRP,0.0331
19,RRIRQRPPRLPRPRPRPQPLPRP,-0.0826
20,RRIRARPPRLPRPRPRPQCLPRP,0.23
21,RRIRFRPPRLPRPRPRPIWLPRP,-0.17
22,RRIRGRPPRLPRPRPRPQQIPRP,0.457
23,RRIRRRPPRLPRPRPRPVCKPRP,-0.012
24,RRIRVRPPRLPRPRPRPEQGPRP,0.0379
25,RRIRIRPPRLPRPRPRPNLAPRP,-0.114

# — the supplement of paper PMC9112550, “Optimization of the antimicrobial peptide Bac7 by deep mutational scanning” (BMC Biology, 2022)
